This passage reports Fold Activity, IC50, decay acceleration activity (DAA) assay and Fold Activity (Compared to CFHT-I62) results from patent US20240358855A1.

The target of assay [1] is malondialdehyde modified LDL (UniProt P04114). The assay is described as follows: plate binding ELISA on coated MDA-LDL, HEK293 supernatant; fold vs (-) control pCTM395 supernatant. A general note: In an ELISA, binding on a coated surface is turned into a signal by an enzyme label.
The target in assay [2] is C3 convertase, C3bBb (UniProt P01024). Nature of the assay: cell-based or functional assay.
In assay [3] the target is C3d ligand (UniProt P01024). The assay is described as follows: plate binding assay on C3d, purified protein; reference.
The target in assay [4] is malondialdehyde modified LDL (UniProt P04114). Nature of the assay: plate binding ELISA on coated MDA-LDL, purified protein; reference.
Assay [5] concerns the target T1, CRP (UniProt P02741).
T1 sequence (looked up): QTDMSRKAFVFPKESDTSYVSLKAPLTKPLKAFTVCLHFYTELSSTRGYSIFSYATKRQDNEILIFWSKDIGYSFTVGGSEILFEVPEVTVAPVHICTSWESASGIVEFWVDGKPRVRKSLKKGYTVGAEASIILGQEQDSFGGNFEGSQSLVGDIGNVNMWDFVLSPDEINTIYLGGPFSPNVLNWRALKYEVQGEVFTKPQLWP
The assay is described as follows: plate binding ELISA on coated CRP, purified protein; reference.

Assay [6] has as its target C3b protein (UniProt P01024). The assay is described as follows: plate binding ELISA on coated C3b, purified protein; reference.
Assay [7] addresses C3b protein (UniProt P01024). The assay is described as follows: plate binding ELISA on coated C3b, HEK293 supernatant 25 ng/mL; fold vs (-) control pCTM395 supernatant.
Assay [8] has as its target malondialdehyde modified LDL (UniProt P04114). The assay is described as follows: plate binding ELISA on coated MDA-LDL; fold vs (-) control pCTM395 supernatant.

Chain of CFHT.0 purified recombinant protein (pCTM134) (P08603 other isoform, or with tags, fused parts or gaps limits assumed): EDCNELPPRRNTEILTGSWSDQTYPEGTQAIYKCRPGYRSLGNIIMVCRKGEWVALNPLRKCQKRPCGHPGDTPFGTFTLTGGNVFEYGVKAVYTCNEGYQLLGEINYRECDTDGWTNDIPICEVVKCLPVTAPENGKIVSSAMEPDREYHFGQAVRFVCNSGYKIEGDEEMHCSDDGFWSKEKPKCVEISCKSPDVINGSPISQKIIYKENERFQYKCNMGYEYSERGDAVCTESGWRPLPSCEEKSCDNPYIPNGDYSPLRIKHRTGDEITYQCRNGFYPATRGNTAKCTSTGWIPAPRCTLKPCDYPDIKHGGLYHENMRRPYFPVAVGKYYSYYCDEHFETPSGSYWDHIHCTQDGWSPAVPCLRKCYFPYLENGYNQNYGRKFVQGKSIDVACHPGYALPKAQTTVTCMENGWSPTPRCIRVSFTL
Chain of C3b protein (P01024 23-667 limits assumed, chain 1 of 2): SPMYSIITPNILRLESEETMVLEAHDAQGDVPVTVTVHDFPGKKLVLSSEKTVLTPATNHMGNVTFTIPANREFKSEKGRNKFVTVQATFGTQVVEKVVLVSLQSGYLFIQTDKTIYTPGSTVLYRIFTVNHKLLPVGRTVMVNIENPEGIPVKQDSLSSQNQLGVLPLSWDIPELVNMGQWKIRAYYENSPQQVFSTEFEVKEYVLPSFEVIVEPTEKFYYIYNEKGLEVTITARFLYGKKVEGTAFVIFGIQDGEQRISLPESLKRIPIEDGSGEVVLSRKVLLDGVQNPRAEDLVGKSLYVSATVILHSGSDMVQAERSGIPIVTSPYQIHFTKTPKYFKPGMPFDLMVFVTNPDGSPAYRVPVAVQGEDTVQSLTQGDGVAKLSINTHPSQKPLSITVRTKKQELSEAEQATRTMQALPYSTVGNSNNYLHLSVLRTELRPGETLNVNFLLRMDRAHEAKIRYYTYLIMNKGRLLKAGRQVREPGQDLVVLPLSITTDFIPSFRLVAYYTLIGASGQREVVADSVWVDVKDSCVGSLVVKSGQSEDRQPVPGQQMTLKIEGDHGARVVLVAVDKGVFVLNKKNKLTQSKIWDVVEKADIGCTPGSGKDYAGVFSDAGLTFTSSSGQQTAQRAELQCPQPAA
Chain of C3b protein (P01024 749-1663 limits assumed, chain 2 of 2): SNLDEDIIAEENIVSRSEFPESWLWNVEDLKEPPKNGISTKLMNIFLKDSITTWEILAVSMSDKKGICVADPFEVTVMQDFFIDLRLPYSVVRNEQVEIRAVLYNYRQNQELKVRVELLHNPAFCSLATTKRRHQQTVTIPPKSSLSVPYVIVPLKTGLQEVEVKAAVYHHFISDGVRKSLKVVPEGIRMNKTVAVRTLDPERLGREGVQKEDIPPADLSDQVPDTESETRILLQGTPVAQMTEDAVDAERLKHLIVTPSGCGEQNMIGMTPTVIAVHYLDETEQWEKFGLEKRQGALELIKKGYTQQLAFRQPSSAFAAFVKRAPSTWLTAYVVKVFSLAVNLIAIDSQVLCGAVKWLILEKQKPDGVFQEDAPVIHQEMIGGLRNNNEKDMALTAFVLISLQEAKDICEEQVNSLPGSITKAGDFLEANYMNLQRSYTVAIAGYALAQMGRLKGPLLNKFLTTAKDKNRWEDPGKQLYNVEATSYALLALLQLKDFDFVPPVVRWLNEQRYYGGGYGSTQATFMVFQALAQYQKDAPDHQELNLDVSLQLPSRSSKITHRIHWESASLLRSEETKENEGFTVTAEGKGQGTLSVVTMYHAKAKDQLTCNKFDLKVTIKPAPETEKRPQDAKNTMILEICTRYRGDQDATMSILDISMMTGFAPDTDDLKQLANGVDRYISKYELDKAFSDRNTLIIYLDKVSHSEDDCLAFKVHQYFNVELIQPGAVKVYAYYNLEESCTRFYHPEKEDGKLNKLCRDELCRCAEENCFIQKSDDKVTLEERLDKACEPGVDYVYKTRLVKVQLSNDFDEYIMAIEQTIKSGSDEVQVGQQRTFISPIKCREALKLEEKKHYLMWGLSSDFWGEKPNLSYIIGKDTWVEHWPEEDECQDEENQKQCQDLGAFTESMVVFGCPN
Chain of C3 convertase, C3bBb (P01024 23-1663 limits assumed, chain 1 of 2): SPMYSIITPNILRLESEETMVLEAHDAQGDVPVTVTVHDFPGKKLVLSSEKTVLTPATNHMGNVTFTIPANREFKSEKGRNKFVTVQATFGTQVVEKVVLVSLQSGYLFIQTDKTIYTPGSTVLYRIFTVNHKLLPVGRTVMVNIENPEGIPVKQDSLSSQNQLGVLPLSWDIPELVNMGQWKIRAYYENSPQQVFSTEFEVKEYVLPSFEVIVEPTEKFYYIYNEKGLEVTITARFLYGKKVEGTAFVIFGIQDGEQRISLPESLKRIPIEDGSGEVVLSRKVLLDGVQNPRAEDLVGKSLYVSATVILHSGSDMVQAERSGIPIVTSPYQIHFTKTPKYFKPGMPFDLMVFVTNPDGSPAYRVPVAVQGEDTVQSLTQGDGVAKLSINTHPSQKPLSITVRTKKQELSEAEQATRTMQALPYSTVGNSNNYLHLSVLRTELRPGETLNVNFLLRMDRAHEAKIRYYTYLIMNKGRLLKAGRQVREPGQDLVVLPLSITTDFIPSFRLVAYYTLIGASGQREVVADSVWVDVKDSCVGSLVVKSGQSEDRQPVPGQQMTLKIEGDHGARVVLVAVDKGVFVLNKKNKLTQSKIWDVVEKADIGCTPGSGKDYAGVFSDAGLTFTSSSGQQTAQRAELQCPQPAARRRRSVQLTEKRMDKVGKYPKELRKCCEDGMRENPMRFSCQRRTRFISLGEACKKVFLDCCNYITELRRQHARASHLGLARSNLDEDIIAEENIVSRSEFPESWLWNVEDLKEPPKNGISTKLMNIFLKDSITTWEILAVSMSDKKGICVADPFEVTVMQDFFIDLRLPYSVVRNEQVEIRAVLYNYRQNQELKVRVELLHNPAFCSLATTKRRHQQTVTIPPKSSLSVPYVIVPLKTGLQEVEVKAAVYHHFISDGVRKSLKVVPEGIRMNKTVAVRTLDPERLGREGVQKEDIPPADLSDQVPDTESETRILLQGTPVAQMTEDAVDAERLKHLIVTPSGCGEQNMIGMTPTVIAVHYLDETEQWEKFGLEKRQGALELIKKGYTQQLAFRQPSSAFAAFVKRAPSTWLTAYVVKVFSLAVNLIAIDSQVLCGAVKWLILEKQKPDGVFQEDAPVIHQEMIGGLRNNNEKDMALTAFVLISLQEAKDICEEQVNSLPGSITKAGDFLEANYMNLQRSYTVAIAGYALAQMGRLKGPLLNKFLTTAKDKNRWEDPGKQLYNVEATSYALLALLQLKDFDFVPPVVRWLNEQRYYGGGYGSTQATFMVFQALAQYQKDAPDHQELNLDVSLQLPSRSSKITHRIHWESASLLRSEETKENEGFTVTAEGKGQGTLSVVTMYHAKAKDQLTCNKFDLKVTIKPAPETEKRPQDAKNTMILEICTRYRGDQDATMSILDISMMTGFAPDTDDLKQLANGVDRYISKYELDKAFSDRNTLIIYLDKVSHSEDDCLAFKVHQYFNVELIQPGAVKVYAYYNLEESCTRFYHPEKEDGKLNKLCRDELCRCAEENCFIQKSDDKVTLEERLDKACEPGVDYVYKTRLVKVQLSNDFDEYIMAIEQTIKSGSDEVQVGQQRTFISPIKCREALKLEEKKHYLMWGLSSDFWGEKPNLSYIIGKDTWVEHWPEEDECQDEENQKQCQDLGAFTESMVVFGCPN
Chain of C3 convertase, C3bBb (P00751 260-764 limits assumed, chain 2 of 2, further chain): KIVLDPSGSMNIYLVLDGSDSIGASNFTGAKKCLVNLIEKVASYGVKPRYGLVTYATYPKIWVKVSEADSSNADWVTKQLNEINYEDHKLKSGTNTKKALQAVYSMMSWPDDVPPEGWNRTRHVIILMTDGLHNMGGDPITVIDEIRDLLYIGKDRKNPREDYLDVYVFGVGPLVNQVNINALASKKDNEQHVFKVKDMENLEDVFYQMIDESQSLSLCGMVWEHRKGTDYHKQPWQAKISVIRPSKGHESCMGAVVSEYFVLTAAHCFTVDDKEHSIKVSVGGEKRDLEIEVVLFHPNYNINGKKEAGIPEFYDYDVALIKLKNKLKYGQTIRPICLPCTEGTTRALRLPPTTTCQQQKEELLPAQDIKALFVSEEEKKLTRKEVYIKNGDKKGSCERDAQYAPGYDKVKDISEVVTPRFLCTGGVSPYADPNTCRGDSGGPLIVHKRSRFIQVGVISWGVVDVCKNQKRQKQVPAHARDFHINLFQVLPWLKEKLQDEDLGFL
Chain of C3d ligand (P01024 1002-1303 limits assumed): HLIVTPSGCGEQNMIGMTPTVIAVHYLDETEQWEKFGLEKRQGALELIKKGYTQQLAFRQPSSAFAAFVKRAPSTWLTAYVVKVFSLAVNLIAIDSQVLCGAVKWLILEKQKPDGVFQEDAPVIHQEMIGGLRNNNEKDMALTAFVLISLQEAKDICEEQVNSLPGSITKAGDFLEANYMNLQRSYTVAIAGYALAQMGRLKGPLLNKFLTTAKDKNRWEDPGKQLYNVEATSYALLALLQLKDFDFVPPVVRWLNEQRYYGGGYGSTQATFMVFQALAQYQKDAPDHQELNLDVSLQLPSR
Chain of His-CFHT.0 (pCTM447) (P08603 other isoform, or with tags, fused parts or gaps limits assumed): as the sequence (P08603 other isoform, or with tags, fused parts or gaps limits assumed) above
Chain of rCFHT-I62 Protein (P08603 other isoform, or with tags, fused parts or gaps limits assumed): as above
Chain of CFHT.0 (pCTM297) (P08603 other isoform, or with tags, fused parts or gaps limits assumed): as above

As to “CFHT.0 (pCTM297) (from UniProt P08603 19-445)”, in assay [1], the Fold Activity at Highest Dose (Relative to Control) is 1.5 fold.
The substance “CFHT.0 purified recombinant protein (pCTM134) (from UniProt P08603 19-445)” had an IC50, decay acceleration activity (DAA) assay in assay [2] of 1.95 nM. Further, the Fold Activity (Compared to CFHT-I62) in assay [3], in assay [4], in assay [5] and in assay [6] was 1 fold each time.
On to “His-CFHT.0 (pCTM447) (from UniProt P08603 19-445)”, for which the values for the Fold Activity at Highest Dose (Relative to Control) in assay [7] and in assay [1] were 1.5 fold and 1.4 fold, respectively.
“rCFHT-I62 Protein (from UniProt P08603 19-445)” displayed a Fold Activity at Highest Dose (Relative to Control) in assay [8] of 52 fold.
